According to paper PMC11343839, “Structural mechanism of proton conduction in otopetrin proton channel” (Nature Communications, 2024):

B1: Caenorhabditis elegans Otopetrin-like 8 (CeOTOP8), wild type, full length (natural protein, UniProt G5EDX5 1-619, looked up)
chain: MLMVDEQLKIGATPMYSPSHNPIVIADDMEKGGSDSDSLPSSPTHHHELYRRPWIHEPRATNFFVRLITSLYALILTIISLVVEVSPTWRTDMWLAETIFYISMYGVGILFFAYCYIFIIYPGPYNQLISVLRKYKIIKNSEVWFIMQSQHNGEGAGTLYLRLGALFFGSVGIVLFGLELFLCIENVACKKVAIAKMIVAIVFTFIQMHFIFCNSKITVNSSRKIVAFGMMHLISVNLWTWFRFVLAKQEAKAHKKAQLKQTFRKYYSSSSSSSSEEIHELISAVLNSTLNNTPATKTMEPVASRLFALEHFGDVATFLTTCIVEYSLIGAAIMFILWKSIGQNNHQQSNSGKRKVKMRIDCSSSSTGLFAGIIFLIGSLVSMGMYTIFESLRNSSGAQLVFGIVDLSLFSIALGACIIGLWRMRHLQYRLHAHGEVIDEILLIIGLIGEILYCAVGIDVFITCRRSADLTVSALPAFVFVIRMIQVVVQAAFILTTSRLRCLSKYSMKYKPGKEIITFLLVSNVTLFVFHTFEGMKSSFGFSSKAATQYNYIIYAVGPLLVFYRFHSSACLAEIWKHTYSTKSNEYDHEHMSLSDSNLTAITPISDIKEIPSPQLLKH
notes: Otopetrin-like 8 (CeOTOP8), Caenorhabditis elegans; wild-type full-length channel; the AlphaFold model AF-G5EDX5-F1 was the initial model; A thrombin cleavage site stood between the protein and the C-terminal 10x His tag; residues of the site may remain after digestion; also called WT CeOTOP8; source: HEK293F cells (BacMam system), purified (Ni-NTA, thrombin digestion on column, Superose 6 SEC in …)
B2: Mus musculus Otopetrin 2 (mOTOP2), wild type (natural protein)
chain: MSEELVPHPNESLPGPRASPREVWKKGGRLLSVLLAVNVLLLACTLISGGAFNKVAVYDTDVFALLTTMMLLAALWIVFYLLRTARCPDAVPYRDAHAGPIWLRGGLVLFGICTLVMDVFKTGYYSSFFECQSAIKILHPIIQAVFVIVQTYFLWISAKDCIHTHLDLTRCGLMFTLATNLAIWMAAVVDESVHQAHSYSGSHGNTSHTRLNPDSKRAGGAAEEDPCLCSTAICQIFQQGYFYLYPFNIEYSLFASTMLYVMWKNVGRLLASTHGHGHTPSRVSLFRETFFAGPVLGLLLFVVGLAVFILYEVQVSGERGHTRQALVIYYSFNIVCLGLMTLVSLSGSVIYRFDRRAMDHHKNPTRTLDVALLMGAALGQYAISYYSIVAVVVGSPRDLQGALNLSHALLMIAQHTFQNVFIIESLHRGPPGAEPREMPPKEPCQGITFANLDAIRTLPSCPPTPRLVIPNLESPQEAVAIISAPRCHWRRRCLKDISLFLLLCNVILWIMPAFGARPHFSNTVEVDFYGYSLWAAIVNICLPFGIFYRMHAVSSLLEVYVLS
notes: Otopetrin 2 (mOTOP2), Mus musculus; wild type; the AlphaFold model AF-Q80SX5-F1 was the initial model; N-terminal 10x His tag, then GFP, then a thrombin cleavage site; residues of the site may remain after digestion; also called mouse OTOP2; WT mOTOP2; source: HEK293F cells (BacMam system), purified (Ni-NTA, thrombin digestion on column, Superose 6 SEC in GDN); not shown: His10, N-terminal, …
B3: mOTOP2 L30W (natural protein, Mus musculus)
chain: MSEELVPHPNESLPGPRASPREVWKKGGRWLSVLLAVNVLLLACTLISGGAFNKVAVYDTDVFALLTTMMLLAALWIVFYLLRTARCPDAVPYRDAHAGPIWLRGGLVLFGICTLVMDVFKTGYYSSFFECQSAIKILHPIIQAVFVIVQTYFLWISAKDCIHTHLDLTRCGLMFTLATNLAIWMAAVVDESVHQAHSYSGSHGNTSHTRLNPDSKRAGGAAEEDPCLCSTAICQIFQQGYFYLYPFNIEYSLFASTMLYVMWKNVGRLLASTHGHGHTPSRVSLFRETFFAGPVLGLLLFVVGLAVFILYEVQVSGERGHTRQALVIYYSFNIVCLGLMTLVSLSGSVIYRFDRRAMDHHKNPTRTLDVALLMGAALGQYAISYYSIVAVVVGSPRDLQGALNLSHALLMIAQHTFQNVFIIESLHRGPPGAEPREMPPKEPCQGITFANLDAIRTLPSCPPTPRLVIPNLESPQEAVAIISAPRCHWRRRCLKDISLFLLLCNVILWIMPAFGARPHFSNTVEVDFYGYSLWAAIVNICLPFGIFYRMHAVSSLLEVYVLS
notes: Otopetrin 2 (mOTOP2), Mus musculus, with the point mutation L30W on TM1; same construct as the wild-type channel; The general purification protocol removes His10-GFP with thrombin; also called mOTOP2 L30W loss-of-function mutant; source: HEK293F cells (pEZTBM vector, same construct as the wild type), purified
B4: mOTOP2 M374W (natural protein, Mus musculus)
chain: MSEELVPHPNESLPGPRASPREVWKKGGRLLSVLLAVNVLLLACTLISGGAFNKVAVYDTDVFALLTTMMLLAALWIVFYLLRTARCPDAVPYRDAHAGPIWLRGGLVLFGICTLVMDVFKTGYYSSFFECQSAIKILHPIIQAVFVIVQTYFLWISAKDCIHTHLDLTRCGLMFTLATNLAIWMAAVVDESVHQAHSYSGSHGNTSHTRLNPDSKRAGGAAEEDPCLCSTAICQIFQQGYFYLYPFNIEYSLFASTMLYVMWKNVGRLLASTHGHGHTPSRVSLFRETFFAGPVLGLLLFVVGLAVFILYEVQVSGERGHTRQALVIYYSFNIVCLGLMTLVSLSGSVIYRFDRRAMDHHKNPTRTLDVALLWGAALGQYAISYYSIVAVVVGSPRDLQGALNLSHALLMIAQHTFQNVFIIESLHRGPPGAEPREMPPKEPCQGITFANLDAIRTLPSCPPTPRLVIPNLESPQEAVAIISAPRCHWRRRCLKDISLFLLLCNVILWIMPAFGARPHFSNTVEVDFYGYSLWAAIVNICLPFGIFYRMHAVSSLLEVYVLS
notes: Otopetrin 2 (mOTOP2), Mus musculus, with the point mutation M374W on TM9; same construct as the wild-type channel; The general purification protocol removes His10-GFP with thrombin; also called mOTOP2 M374W loss-of-function mutant; source: HEK293F cells (pEZTBM vector, same construct as the wild type), purified
B5: mOTOP2 V370W (natural protein, Mus musculus)
chain: MSEELVPHPNESLPGPRASPREVWKKGGRLLSVLLAVNVLLLACTLISGGAFNKVAVYDTDVFALLTTMMLLAALWIVFYLLRTARCPDAVPYRDAHAGPIWLRGGLVLFGICTLVMDVFKTGYYSSFFECQSAIKILHPIIQAVFVIVQTYFLWISAKDCIHTHLDLTRCGLMFTLATNLAIWMAAVVDESVHQAHSYSGSHGNTSHTRLNPDSKRAGGAAEEDPCLCSTAICQIFQQGYFYLYPFNIEYSLFASTMLYVMWKNVGRLLASTHGHGHTPSRVSLFRETFFAGPVLGLLLFVVGLAVFILYEVQVSGERGHTRQALVIYYSFNIVCLGLMTLVSLSGSVIYRFDRRAMDHHKNPTRTLDWALLMGAALGQYAISYYSIVAVVVGSPRDLQGALNLSHALLMIAQHTFQNVFIIESLHRGPPGAEPREMPPKEPCQGITFANLDAIRTLPSCPPTPRLVIPNLESPQEAVAIISAPRCHWRRRCLKDISLFLLLCNVILWIMPAFGARPHFSNTVEVDFYGYSLWAAIVNICLPFGIFYRMHAVSSLLEVYVLS
notes: Otopetrin 2 (mOTOP2), Mus musculus, with the point mutation V370W on TM9; same construct as the wild-type channel; The general purification protocol removes His10-GFP with thrombin; also called mOTOP2 V370W loss-of-function mutant; source: HEK293F cells (pEZTBM vector, same construct as the wild type), purified

Assays:
[1] = biological target: the molecule itself; test: cryo-EM structure; single-particle cryo-EM of protein purified in GDN detergent (20 mM Tris, 150 mM NaCl, 0.04% GDN), 3.0 mg/mL; samples at pH 5.0 and 8.0 (CeOTOP8), pH 5.0, 7.0, 8.0 and 9.0 (mOTOP2), pH 8.0 (mOTOP2 M374W)
[2] = biological target: the molecule itself; test: SEC; loss-of-function mutants of mOTOP2 purified as a stable dimer (Supplementary Fig. 10b, not shown); the general purification ends with Superose 6 10/300 GL in 20 mM Tris pH 8.0, 150 mM NaCl, 0.04% GDN

Row | Protein | stoichiometry N [1] | stoichiometry N [2]
1 | B1 | 2 | –
2 | B2 | 2 | –
3 | B3 | – | 2
4 | B4 | – | 2
5 | B5 | – | 2
